One block for each binder: values may come before it. Bridges are numbered along the chain shown (N, C = ends). [ ]: non-standard residue; d: D form. Chg = N[C@H](C(=O)O)C1CCCCC1
Target: T1, CathepsinG, from human neutrophils (human, UniProt P08311 21-244)
T1 sequence (looked up): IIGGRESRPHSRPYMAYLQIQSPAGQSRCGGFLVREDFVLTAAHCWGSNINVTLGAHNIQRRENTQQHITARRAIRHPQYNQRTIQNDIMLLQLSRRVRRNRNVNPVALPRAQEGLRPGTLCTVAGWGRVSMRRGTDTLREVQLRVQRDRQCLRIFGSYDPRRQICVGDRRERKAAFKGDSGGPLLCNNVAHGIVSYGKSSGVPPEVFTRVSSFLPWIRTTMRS
Assay: cell-based or functional assay

IC50: 42 nmol
B1: Example 29 (peptide)
peptide: XCTKSDPPICD
HELM: PEPTIDE1{[O=C([C@H](CCc1ccccc1)N[*:1])[*:2]].C.T.K.S.D.P.P.I.C.D.[dP].P}$PEPTIDE1,PEPTIDE1,2:R3-10:R3|PEPTIDE1,PEPTIDE1,1:R1-13:R2$$$V2.0
SMILES: CC[C@H](C)[C@@H]1NC(=O)[C@@H]2CCCN2C(=O)[C@@H]2CCCN2C(=O)[C@H](CC(=O)O)NC(=O)[C@H](CO)NC(=O)[C@H](CCCCN)NC(=O)[C@H]([C@@H](C)O)NC(=O)[C@@H]2CSSC[C@H](NC1=O)C(=O)N[C@@H](CC(=O)O)C(=O)N1CCC[C@@H]1C(=O)N1CCC[C@H]1C(=O)N[C@@H](CCc1ccccc1)C(=O)N2

IC50: 48 nmol
Binder: cyclo([Chg]CTK[AlloThr]DPPYCY[dP]P) (disulfide 2-10) [Example 67]

IC50: 49 nmol
B2: Example 41 (peptide)
peptide: XCTKSDPPICN
HELM: PEPTIDE1{[Nle].C.T.K.S.D.P.P.I.C.N.[dP].P}$PEPTIDE1,PEPTIDE1,2:R3-10:R3|PEPTIDE1,PEPTIDE1,1:R1-13:R2$$$V2.0
SMILES: CCCC[C@@H]1NC(=O)[C@@H]2CCCN2C(=O)[C@H]2CCCN2C(=O)[C@H](CC(N)=O)NC(=O)[C@@H]2CSSC[C@H](NC1=O)C(=O)N[C@@H]([C@@H](C)O)C(=O)N[C@@H](CCCCN)C(=O)N[C@@H](CO)C(=O)N[C@@H](CC(=O)O)C(=O)N1CCC[C@H]1C(=O)N1CCC[C@H]1C(=O)N[C@@H]([C@@H](C)CC)C(=O)N2

IC50: 77 nmol
B3: Example 43 (peptide)
peptide: XCTKSDPPICD
HELM: PEPTIDE1{[Nle].C.T.K.S.D.P.P.I.C.D.[dP].P}$PEPTIDE1,PEPTIDE1,2:R3-10:R3|PEPTIDE1,PEPTIDE1,1:R1-13:R2$$$V2.0
SMILES: CCCC[C@@H]1NC(=O)[C@@H]2CCCN2C(=O)[C@H]2CCCN2C(=O)[C@H](CC(=O)O)NC(=O)[C@@H]2CSSC[C@H](NC1=O)C(=O)N[C@@H]([C@@H](C)O)C(=O)N[C@@H](CCCCN)C(=O)N[C@@H](CO)C(=O)N[C@@H](CC(=O)O)C(=O)N1CCC[C@H]1C(=O)N1CCC[C@H]1C(=O)N[C@@H]([C@@H](C)CC)C(=O)N2

IC50: 69 nmol
B4: Example 62 (peptide)
peptide: XCTKSDPPICS
HELM: PEPTIDE1{[O=C([C@H](Cc1cccc2ccccc12)N[*:1])[*:2]].C.T.K.S.D.P.P.I.C.S.[dP].P}$PEPTIDE1,PEPTIDE1,2:R3-10:R3|PEPTIDE1,PEPTIDE1,1:R1-13:R2$$$V2.0
SMILES: CC[C@H](C)[C@@H]1NC(=O)[C@@H]2CCCN2C(=O)[C@@H]2CCCN2C(=O)[C@H](CC(=O)O)NC(=O)[C@H](CO)NC(=O)[C@H](CCCCN)NC(=O)[C@H]([C@@H](C)O)NC(=O)[C@@H]2CSSC[C@H](NC1=O)C(=O)N[C@@H](CO)C(=O)N1CCC[C@@H]1C(=O)N1CCC[C@H]1C(=O)N[C@@H](Cc1cccc3ccccc13)C(=O)N2

IC50: 54 nmol
B5: Example 35 (peptide)
peptide: XCTKSDPPICD
HELM: PEPTIDE1{[Cha].C.T.K.S.D.P.P.I.C.D.[dP].P}$PEPTIDE1,PEPTIDE1,2:R3-10:R3|PEPTIDE1,PEPTIDE1,1:R1-13:R2$$$V2.0
SMILES: CC[C@H](C)[C@@H]1NC(=O)[C@@H]2CCCN2C(=O)[C@@H]2CCCN2C(=O)[C@H](CC(=O)O)NC(=O)[C@H](CO)NC(=O)[C@H](CCCCN)NC(=O)[C@H]([C@@H](C)O)NC(=O)[C@@H]2CSSC[C@H](NC1=O)C(=O)N[C@@H](CC(=O)O)C(=O)N1CCC[C@@H]1C(=O)N1CCC[C@H]1C(=O)N[C@@H](CC1CCCCC1)C(=O)N2

IC50: 72 nmol
B6: Example 61 (peptide)
peptide: WCTKSDPPICS
HELM: PEPTIDE1{W.C.T.K.S.D.P.P.I.C.S.[dP].P}$PEPTIDE1,PEPTIDE1,2:R3-10:R3|PEPTIDE1,PEPTIDE1,1:R1-13:R2$$$V2.0
SMILES: CC[C@H](C)[C@@H]1NC(=O)[C@@H]2CCCN2C(=O)[C@@H]2CCCN2C(=O)[C@H](CC(=O)O)NC(=O)[C@H](CO)NC(=O)[C@H](CCCCN)NC(=O)[C@H]([C@@H](C)O)NC(=O)[C@@H]2CSSC[C@H](NC1=O)C(=O)N[C@@H](CO)C(=O)N1CCC[C@@H]1C(=O)N1CCC[C@H]1C(=O)N[C@@H](Cc1c[nH]c3ccccc13)C(=O)N2

IC50: 68 nmol
Binder: cyclo(FCTKSDPPICS[dN]P) (disulfide 2-10) [Example 69]

IC50: 52 nmol
B7: Example 32 (peptide)
peptide: XCTKSDPPICY
HELM: PEPTIDE1{[Nc1ccc(C[C@H](N[*:1])C(=O)[*:2])cc1].C.T.K.S.D.P.P.I.C.Y.[dP].P}$PEPTIDE1,PEPTIDE1,2:R3-10:R3|PEPTIDE1,PEPTIDE1,1:R1-13:R2$$$V2.0
SMILES: CC[C@H](C)[C@@H]1NC(=O)[C@@H]2CCCN2C(=O)[C@@H]2CCCN2C(=O)[C@H](CC(=O)O)NC(=O)[C@H](CO)NC(=O)[C@H](CCCCN)NC(=O)[C@H]([C@@H](C)O)NC(=O)[C@@H]2CSSC[C@H](NC1=O)C(=O)N[C@@H](Cc1ccc(O)cc1)C(=O)N1CCC[C@@H]1C(=O)N1CCC[C@H]1C(=O)N[C@@H](Cc1ccc(N)cc1)C(=O)N2

IC50: 56 nmol
B8: Example 34 (peptide)
peptide: XCTKSDPPICT
HELM: PEPTIDE1{[Cha].C.T.K.S.D.P.P.I.C.T.[dP].P}$PEPTIDE1,PEPTIDE1,2:R3-10:R3|PEPTIDE1,PEPTIDE1,1:R1-13:R2$$$V2.0
SMILES: CC[C@H](C)[C@@H]1NC(=O)[C@@H]2CCCN2C(=O)[C@@H]2CCCN2C(=O)[C@H](CC(=O)O)NC(=O)[C@H](CO)NC(=O)[C@H](CCCCN)NC(=O)[C@H]([C@@H](C)O)NC(=O)[C@@H]2CSSC[C@H](NC1=O)C(=O)N[C@@H]([C@@H](C)O)C(=O)N1CCC[C@@H]1C(=O)N1CCC[C@H]1C(=O)N[C@@H](CC1CCCCC1)C(=O)N2

IC50: 48 nmol
B9: Example 27 (peptide)
peptide: XCTKSDPPICN
HELM: PEPTIDE1{[O=C([C@H](CCc1ccccc1)N[*:1])[*:2]].C.T.K.S.D.P.P.I.C.N.[dP].P}$PEPTIDE1,PEPTIDE1,2:R3-10:R3|PEPTIDE1,PEPTIDE1,1:R1-13:R2$$$V2.0
SMILES: CC[C@H](C)[C@@H]1NC(=O)[C@@H]2CCCN2C(=O)[C@@H]2CCCN2C(=O)[C@H](CC(=O)O)NC(=O)[C@H](CO)NC(=O)[C@H](CCCCN)NC(=O)[C@H]([C@@H](C)O)NC(=O)[C@@H]2CSSC[C@H](NC1=O)C(=O)N[C@@H](CC(N)=O)C(=O)N1CCC[C@@H]1C(=O)N1CCC[C@H]1C(=O)N[C@@H](CCc1ccccc1)C(=O)N2

IC50: 45 nmol
B10: Example 33 (peptide)
peptide: XCTKSDPPICN
HELM: PEPTIDE1{[Cha].C.T.K.S.D.P.P.I.C.N.[dP].P}$PEPTIDE1,PEPTIDE1,2:R3-10:R3|PEPTIDE1,PEPTIDE1,1:R1-13:R2$$$V2.0
SMILES: CC[C@H](C)[C@@H]1NC(=O)[C@@H]2CCCN2C(=O)[C@@H]2CCCN2C(=O)[C@H](CC(=O)O)NC(=O)[C@H](CO)NC(=O)[C@H](CCCCN)NC(=O)[C@H]([C@@H](C)O)NC(=O)[C@@H]2CSSC[C@H](NC1=O)C(=O)N[C@@H](CC(N)=O)C(=O)N1CCC[C@@H]1C(=O)N1CCC[C@H]1C(=O)N[C@@H](CC1CCCCC1)C(=O)N2

IC50: 48 nmol
B11: Example 66 (peptide)
peptide: XCTKSDPPXCY
HELM: PEPTIDE1{[O=C([C@@H](N[*:1])C1CCCCC1)[*:2]].C.T.K.S.D.P.P.[Cha].C.Y.[dP].P}$PEPTIDE1,PEPTIDE1,2:R3-10:R3|PEPTIDE1,PEPTIDE1,1:R1-13:R2$$$V2.0
SMILES: C[C@@H](O)[C@@H]1NC(=O)[C@@H]2CSSC[C@H](NC(=O)[C@H](CC3CCCCC3)NC(=O)[C@@H]3CCCN3C(=O)[C@@H]3CCCN3C(=O)[C@H](CC(=O)O)NC(=O)[C@H](CO)NC(=O)[C@H](CCCCN)NC1=O)C(=O)N[C@@H](Cc1ccc(O)cc1)C(=O)N1CCC[C@@H]1C(=O)N1CCC[C@H]1C(=O)N[C@@H](C1CCCCC1)C(=O)N2

IC50: 69 nmol
B12: Example 70 (peptide)
peptide: XCTKSDPPXCN
HELM: PEPTIDE1{[Nc1ccc(C[C@H](N[*:1])C(=O)[*:2])cc1].C.T.K.S.D.P.P.[Cha].C.N.[dP].P}$PEPTIDE1,PEPTIDE1,2:R3-10:R3|PEPTIDE1,PEPTIDE1,1:R1-13:R2$$$V2.0
SMILES: C[C@@H](O)[C@@H]1NC(=O)[C@@H]2CSSC[C@H](NC(=O)[C@H](CC3CCCCC3)NC(=O)[C@@H]3CCCN3C(=O)[C@@H]3CCCN3C(=O)[C@H](CC(=O)O)NC(=O)[C@H](CO)NC(=O)[C@H](CCCCN)NC1=O)C(=O)N[C@@H](CC(N)=O)C(=O)N1CCC[C@@H]1C(=O)N1CCC[C@H]1C(=O)N[C@@H](Cc1ccc(N)cc1)C(=O)N2

IC50: 47 nmol
B13: Example 45 (peptide)
peptide: XCTKSDPPICN
HELM: PEPTIDE1{[O=C([C@H](Cc1ccccc1Cl)N[*:1])[*:2]].C.T.K.S.D.P.P.I.C.N.[dP].P}$PEPTIDE1,PEPTIDE1,2:R3-10:R3|PEPTIDE1,PEPTIDE1,1:R1-13:R2$$$V2.0
SMILES: CC[C@H](C)[C@@H]1NC(=O)[C@@H]2CCCN2C(=O)[C@@H]2CCCN2C(=O)[C@H](CC(=O)O)NC(=O)[C@H](CO)NC(=O)[C@H](CCCCN)NC(=O)[C@H]([C@@H](C)O)NC(=O)[C@@H]2CSSC[C@H](NC1=O)C(=O)N[C@@H](CC(N)=O)C(=O)N1CCC[C@@H]1C(=O)N1CCC[C@H]1C(=O)N[C@@H](Cc1ccccc1Cl)C(=O)N2

From patent publication US20140213531A1 (POLYPHOR, published 2014)
